Measured values reported in patent US11732048B2, “Anti-axl antagonistic antibodies” (BERGEN TEKNOLOGIOVERFØRING AS, priority 2016, dated 2023).
“Also recorded” adds a separate entry of the source.

Experiments:
[1] = test system: Axl-dependent phosphorylation of Akt in LX2 cells; assay: Axl-dependent AKT activation (pAkt Ser473 Western blot) in LX2 cells; format: cell-based, human
Method: Activation of Axl by Gas6 or cross-linking antibodies leads to phosphorylation of Akt.
Effect of Axl blocking antibodies in blocking Axl-dependent AKT activation in LX2 cells: • Cells were seeded in 12-well/plate (2×10^5 cells/well) in DMEM/10% FBS and allowed to attach and grow for >24 h. […] Axl activation was read out via phosphorylation of Akt on serine 473 (Western blot).
Protein Analysis: • Cells were lysed in RIPA buffer (150 mM NaCl, 1.0% IGEPAL® CA-630, 0.5% sodium deoxycholate, 0.1% SDS, 50 mM Tris, pH 8.0., SIGMA-ALDRICH) supplemented with antiproteases and anti-phosphatases (PMSF, sodium orthovanadate, protease inhibitor cocktail, and sodium fluoride), adjusted to 1× Laemmli loading buffer, sonicated, and centrifuged. 20-30 μl of the samples were subjected to 8% sodium dodecyl sulphate-polyacrylamide gel electrophoresis and then transferred to nitrocellulose membranes. Membranes were blocked in 5% BSA-FAF and washed in TBS Tween buffer and then developed with Pierce-ECL western blotting Substrate. • The antibodies used were p-AKT (p-Akt1/2/3 (C-11)), 1:200 in 5% BSA/TBS-T, o/n at 4° C.; AKT (1:200), followed by anti-mouse m-IgGκ BP-HRP (1:2000, 1 h, RT); anti-AKT (Akt1/2/3 (H-136)), 1:400, 1 h, RT followed by anti-rabbit-IgG-HRP (1:20000, 1 h, RT).
Activation of Axl is often achieved by treating Axl with its ligand, Gas6. […]

[2] = test system: Axl autophosphorylation (Tyrosine 866) in HeLa cells; assay: Phospho-Axl (Y866) ELISA on HeLa cell lysates; format: cell-based, human
Method: To assess the level to which various Axl inhibitors reduce activation of Axl, as assessed through on of inhibition of Tyrosine 866 (Y866), one of Axl's known autophosphorylation sites (others include Y779 and Y821—see Oncotarget. 2014 October; 5(20): 9546-9563; doi: 10.18632/oncotarget.2542 and references cited therein).
Lysate Preparation • 1. Seed out HeLa cells in 14 10-cm dishes • a. 3 million cells per dish • 2. Incubate cells until attached • 3. Remove medium and wash cells with PBS • 4. Serum-starve the cells in 0.5% FBS media • a. 0.5% MEM for HeLa • b. O/N, at least 24 hour starvation • 5. Incubate cells with anti-Axl antibodies for 1 hour in 6 ml fresh 0.5% MEM. • a. BGB324 (CAS=1037624-75-1, UNII=0ICW2LX8AS): 0.2 uM • b. H2L1-Evitra*: 50 ug/ml • c. H2L1-Catalent*: 50 ug/ml • d. YW327.6S2: 50 ug/ml • *same sequence, different preparation • 6. Stimulate designated plates with 0.01 ug/ml rhGas6 in 6 ml of total media per 10-cm dish. • a. rhGas6 stimulation 0.01 ug/ml • 7. Set-up: Make each in 26 ml of 0.5% MEM • #1. Starvation • #2. rhGas6 stimulation (0.01 ug/ml) • #3. rhGas6 stimulation+pre-incubation with BGB324 0.2 uM • #4. rhGas6 stimulation+pre-incubation with H2L1-Evitra: 50 ug/ml • #5. rhGas6 stimulation+pre-incubation with H2L1-Catalent: 50 ug/ml • #6. rhGas6 stimulation+pre-incubation with YW327.6S2 50 ug/ml • #7. BGB324 0.2 uM alone • #8. H2L1-Evitra: 50 ug/ml alone • #9. H2L1-Catalent: 50 ug/ml alone • #10. YW327.6S2 50 ug/ml alone • 8. Stop reaction by lysing cells on ice • 9. Wash with cold PBS • 10. Add RIPA buffer (plus phosphatase inhibitors) • a. 100 ul/dish • 11. Scrape cells from dish • 12. Incubate 5-10 min on ice • 13. Spin down 13,000 rpm 5-10 min (cold) • 14. Supernatant transferred to fresh tube • 15. Measure phospho-protein by ELISA […]
Materials • Nunc MaxiSorp 96C plates • Tris-buffered saline (TBS) pH7.6 • Tween 20 (Sigma) • Wash buffer (TBS+0.05% Tween 20) • Fetal bovine serum (FBS) (Sigma) • Monoclonal mouse anti-HsAxl antibody 5F11, 3.6 mg/ml stock (BerGenBio). • Polyclonal rabbit anti-Hs-phospho-Y866 Axl antibody pAxl-Y866-16, 1.0 mg/ml (BerGenBio). […] For HeLa cells total protein concentration 1.5 mg/ml gives a strong signal. • Microplate reader with 450 nm absorbance. Absorbance at 595 nm (if available) should be subtracted to reduce background, but the effect is marginal. […]
Develop • Prepare fresh substrate solution: • 100 μl 10 mg/ml TMB stock solution • 10 μl 30% Hydrogen peroxide solution • 9.9 ml 100 mM Sodium acetate pH6 • Optional: test a small volume of the substrate solution by adding 1 μl leftover HRP-conjugated detection antibody mixture (step 12). […] Read plate on microplate reader with absorbance of 450 nm.

A549 tumours = assay: A549 human NSCLC xenograft in mice (Examples 14, 16, 17, 18); format: in vivo, mouse; conditions: SCID mice, 30 mg/kg i.p. twice weekly, after two weeks of treatment, versus control (SYNAGIS)
Text: SCID mice were implanted subcutaneously (s.c.) into the flank with 5×10^6 A549 cells resuspended in serum-free medium/Matrigel (1:1).

[3] = biological target: T1, human Axl (rhAxl-Fc chimera) (Homo sapiens, UniProt P30530); assay: Biacore kinetic analysis (surface plasmon resonance) on immobilised rhAxl-Fc; format: binding
T1 construct: Soluble recombinant antigens corresponding to the extracellular domains of members of the human TAM receptor family; Fc; purchased R&D Systems 154-AL
Method: Kinetic analysis of murine MAb 10G5 interacting with rhAxl immobilized on the surface of the Biacore sensor chip. Overlay plots of sensograms for different antibody concentrations (0.3-166.7 nM for murine 10G5) are shown. The precise kinetic analysis was performed using BIA evaluation software and curve fitting according to 1:1 Langmuir binding model. […]
Affinity determination of anti-Axl antibody 10G5 was performed at 25° C. by surface plasmon resonance measurements using Biacore 3000 instrument (GE Healthcare). As a solid antigen-coated surface, a sensor chip CM5 with immobilized rhAxl-Fc chimera (R&D Systems, Cat. no. 154-AL) at density 190 RU was used.
For the kinetics measurements, different concentrations of anti-Axl antibodies (from 0.3 to 666.7 nM) in HBS-EP buffer (Biacore, Cat. no. BR-1001-88) were injected at flow rate of 30 μL/min with 3 min injection time followed by 5 min dissociation (buffer alone). After each cycle, the surface was regenerated by 30 sec injection of a regeneration solution (10 mM HCl, 1 M NaCl) at flow rate 50 μL/min.
The kinetic association (on-rate, kon) and dissociation (off-rate, koff) rates were calculated using BIAevaluation software and 1:1 Langmuir binding model. The equilibrium dissociation constant (KD) was calculated as the koff/kon ratio. The half-life (t1/2) of the formed antibody-antigen complexes was calculated as the ln 2/koff ratio. […]

[4] = biological target: T2, Hs-Axl-Fc (immobilized Axl-Fc) (Homo sapiens, UniProt P30530); assay: Biacore binding competition assays, two injections (Example 22); conditions: Gas6 10 μg/mL as first protein
T2 construct: Fc
Text: Sensor chip with immobilised Axl: Hs-Axl-Fc (638.2 RU), Mm-Axl-Fc (334.5 RU), Rhe-Axl-Fc (350.2 RU)
In this experiment, a first antibody was allowed to bind to saturation. A second antibody was then applied and its ability to bind was monitored.
If the second antibody recognizes the same (or overlapping) epitope as the first antibody then binding will be blocked. If the second antibody recognizes a different epitope then binding will be detected at the same level as if no first antibody was present.
The ability of Gas6 to block antibody binding was also tested, using Gas6 at 10 μg/mL in HBS-EP.
All tests were performed in parallel on Hs-Axl-Fc, Mm-Axl-Fc and Rhe-Axl-Fc surfaces.
See FIG. 1 for a list of the pairs that were tested (in this list Contr-1 is incorrectly labeled YW367 instead of YW327.6S2var). All antibodies were at 25 μg/mL in HBS-EP.
• 2. Perform Biacore experiments at 25° C. • 3. In the instrument control software choose Direct Binding, and select settings for two injections as shown below. • 4. […] Store the template & the result file, start the analysis.

[5] = agent alone, starved HeLa (antibodies 50 ug/ml, BGB324 0.2 uM, rhGas6 0.01 ug/ml)
[6] = rhGas6 0.01 ug/ml stimulation after 1 hour pre-incubation (antibodies 50 ug/ml, BGB324 0.2 uM), starved HeLa
[7] = rhAxl immobilized on Biacore sensor chip, 25° C., 1:1 Langmuir binding model

KD lower than that of the chimeric antibody ([3]; comparison referring to Table 3) | Off-rate (koff) [3, 7] [s⁻¹] | On-rate (kon) [3, 7] [M⁻¹ s⁻¹] | Effect of Gas6 bound first on subsequent binding of the antibody [4] | Effect of Gas6 bound first on subsequent binding of the antibody ([4]; listed as 1H21L1) | Molecule | Inhibition of 1H12-stimulated pAkt ([1]; FIG. 22B) | Absorbance @ 450 nm (pAxl reading) [2, 5] | Absorbance @ 450 nm (pAxl reading) [2, 6] | Inhibition of A549 tumour growth (A549 tumours) | Stimulation of Akt phosphorylation ([1]; FIG. 22A, Gas6 versus cross-linking 1H12)
 |  |  |  |  | Nc1nc(Nc2ccc3c(c2)CC[C@@H](N2CCCC2)CC3)nn1-c1cc2c(nn1)-c1ccccc1CCC2 [BGB324, 1-(6,7-dihydro-5H-benzo[6,7]cyclohepta[1,2-c]pyridazin-3-yl)-N3-((7-(S)-pyrrolidin-1-yl)-6,7,8,9-tetrahydro-5H-benzo[7]annulene-2-yl)-1H-1,2,4-triazole-3,5-diamine, reference compound] | can be inhibited; also recorded: clear response | 0.039 | 0.045 |  | 
at least 50% | 0.000142 | 2.07e+06 | inhibited | blocks binding | H2L1: humanised variant of 10G5; presumably VH GH2 (SEQ ID NO: 2) with VL GL1 (SEQ ID NO: 3) (antibody, V domains shown, hu10G5 VH(GH2); hu10G5 VL(GL1)) VH: EVQLVESGGGLVQPGGSLRLSCAASGYSFTDFYINWVRQAPGKGLEWVARIFPGGDNTYYNEKFKGRFTLSADTSKSTAYLQMNSLRAEDTAVYYCARRGLYYAMDYWGQGTLVTVSS VL: DIQMTQSPSSLSASVGDRVTITCRSSQSLVHSNGIPYLHWYQQKPGKAPKLLIYRVSNRFSGVPSRFSGSGSGTDFTLTISSLQPEDFATYYCSQGTHVPPTFGQGTKVEIK |  |  | 0.055 | around 25% | 
 |  |  |  |  | rhGas6: recombinant human Gas6, Axl ligand (protein, listed as Homo sapiens, (1)..(678) Homo sapiens Gas6) MAPSLSPGPAALRRAPQLLLLLLAAECALAALLPAREATQFLRPRQRRAFQVFEEAKQGHLERECVEELCSREEAREVFENDPETDYFYPRYLDCINKYGSPYTKNSGFATCVQNLPDQCTPNPCDRKGTQACQDLMGNFFCLCKAGWGGRLCDKDVNECSQENGGCLQICHNKPGSFHCSCHSGFELSSDGRTCQDIDECADSEACGEARCKNLPGSYSCLCDEGFAYSSQEKACRDVDECLQGRCEQVCVNSPGSYTCHCDGRGGLKLSQDMDTCEDILPCVPFSVAKSVKSLYLGRMFSGTPVIRLRFKRLQPTRLVAEFDFRTFDPEGILLFAGGHQDSTWIVLALRAGRLELQLRYNGVGRVTSSGPVINHGMWQTISVEELARNLVIKVNRDAVMKIAVAGDLFQPERGLYHLNLTVGGIPFHEKDLVQPINPRLDGCMRSWNWLNGEDTTIQETVKVNTRMQCFSVTERGSFYPGSGFAFYSLDYMRTPLDVGTESTWEVEVVAHIRPAADTGVLFALWAPDLRAVPLSVALVDYHSTKKLKKQLVVLAVEHTALALMEIKVCDGQEHVVTVSLRDGEATLEVDGTRGQSEVSAAQLQERLAVLERHLRSPVLTFAGGLPDVPVTSAPVTAFYRGCMTLEVNRRLLDLDEAAYKHSDITAHSCPPVEPAAA |  | 0.077 |  |  | weaker
